This assay has as its target human B cell antigen CD19 on human B-ALL cells (human) (UniProt P15391). The experiment in a line: cell-based or functional assay.

“CarP^Fc19-RFP (αCD19 scFv, human CD8 hinge/transmembrane, mouse Fcer1g aa19-86, mouse CD19 aa491-535, P2A-RFP) (from UniProt P01732 138-206; P20491 19-86; P25918 491-535)” showed a percent of macrophages (from mouse SCF/2i GMPs) that engulfed GFP-positive human B-ALL cells within 1 hour of co-culture of 5.23%. “αCD19 CarP^zFc19-RFP (αCD19 scFv, human CD8 hinge/transmembrane, mouse CD3ζ aa52-164, mouse Fcer1g aa45-86, mouse CD19, P2A-RFP) (from UniProt P01732 138-206; P24161 52-164; P20491 45-86; P25918 491-535)”: the percent of macrophages (from mouse SCF/2i GMPs) that engulfed human B-ALL leukemia cells within 1 hour of co-culture, by flow cytometry was determined as 41.6%. As for “CarP-RFP (control CarP: extracellular αCD19 scFv, CD8 transmembrane domain, RFP, no cytoplasmic signaling domain) (from UniProt P01732 138-206)”, the percent of CarP-RFP macrophages (from GMPs expanded in modified SCF/2i) that engulfed GFP-labeled human B-ALL cells within 1 hour of co-culture; control CAR without signaling domain is 0.87% and the percent of macrophages (from mouse SCF/2i GMPs) that phagocytized GFP-labeled human B-ALL cells within 1 hour of co-culture; control CAR without signaling domain was found to be 0.21%.

Take “human CarPzFc19-RFP (αCD19 scFv, human CD8 hinge/transmembrane, human CD3ζ aa52-164, human Fcer1g aa45-86, human CD19 aa498-544) (from UniProt P01732 138-206; P20963 52-164; P30273 45-86; P15391 498-544)”: the percent of macrophages (from GMPs expanded in modified SCF/2i) that engulfed GFP-labeled human B-ALL leukemia cells within 1 hour of co-culture, by flow cytometry amounted to 28.6%.

The record behind these values is patent US20240240147A1.
